Decrease of basal-to-apical transcytosis of CR3022 (400 µg) across WD-HAE cultures with 10-fold excess IVIG (4 mg) as competitor and reduction of basal-to-apical transcytosis of CR3022-LS across WD-HAE cultures with excess IVIG as competitor data for two substances are collected here from article PMC11439726.

Assay [1] has as its target recombinant human FcRn protein (neonatal Fc receptor) (human) (UniProt P55899).
The target is the same in assay [2]. The source holds these as a separate data set.

On to “CR3022 (human recombinant monoclonal antibody, wildtype IgG1-Fc)”, for which the decrease of basal-to-apical transcytosis of CR3022 (400 µg) across WD-HAE cultures with 10-fold excess IVIG (4 mg) as competitor in assay [1] worked out at 50%.
Consider “CR3022-LS (CR3022 with Fc containing the LS mutation) (antibody)”, for which, in assay [2], the reduction of basal-to-apical transcytosis of CR3022-LS across WD-HAE cultures with excess IVIG as competitor was 20%.
